Experimental findings from paper PMC8131360, “Phospholipid translocation captured in a bifunctional membrane protein MprF” (Nature Communications, 2021) are described below.

This series deals with the molecule itself. The series is described as follows: cryo-EM structure; full-length RtMprF purified in β-DDM or GDN, reconstituted with POPG and MSP1E3D1 (1:2:100) in lipid nanodiscs; 20 mM Tris-HCl pH 7.5, 300 mM NaCl; single-particle analysis, C2 symmetry imposed.

B1: Multiple Peptide Resistance Factor from Rhizobium tropici (RtMprF) (natural protein, UniProt A0A6P1C618 1-869, looked up)
chain: MSSPIDLESADEELEERGGIVGLLNRYRALIVAVLTVAVFCIAAYAIYDLTTEVRYDDVVHALTTTKISSVLLALLFTGLSFASLIFYDQNALEYIGKRLPFPHVALTSFSAYAVGNTAGFGALSAGAIRYRAYTRLGLSPDDITRVIAFVTLAFGLGLASVGAMALLVIADEIGPLISVDGLWLRLIAIAILAALAFVVYAGRNGREVRIGPVAVRLPDSRTWSRQFLVTAFDIAASASVLYVLLPETSIGWPGFFAIYAIAVGLGVLSHVPAGFGVFETIIIAWLGSSVNEDAVLSSLVLYRVIYNVIPLVIAIAAISVAELRRFVDHPVASSMRRIGARLMPQLLSAFALLLGMMLVFSSVTPTPDHNLIVLSDYLPLSLVESAHFLSSLLGLAIIVAARGLSQRLDGAWWVSTFSALFALFFSLLKAIAIVEAGLLAFFVFSLVVSRRLFKRPASLLNQTLTAGWLTAIAVVCIGAIVVLFFVYRDVGYSNELWWQFEFADEAPRGLRAALGISIVSSAIAIFSLLRPATKRPEPVSDDAVARAVEIVRKQGVADANLVRMGDKSIMFSEKGDAFIMYGKQGRSWIALFDPVGPRQALPDLIWRFVETARAAGCRSVFYQISPALLSYCADAGLRAFKLGELAVVNLANFELKGGKWANLRQTASRAVRDGLEFAVIEPQDIPDVLDQLAHVSDTWLADHNAKEKSFSLGAFDPDYVCSQPVGVLKKDGKIVAFANILMTETKEEGSVDLMRFSPDAPKGSMDFLFVQILEYLKGEGFQRFNLGMAPLSGMSRRESAPVWDRVGGTVFEHGERFYNFKGLRAFKSKFHPEWQPRYLAVSGGVSPMIALMDATFLIGGGLKGVVRK
notes: MprF (mprF gene) from Rhizobium tropici, full-length protein of 869 amino acid residues; flippase domain (Subdomain 1 Leu24-Arg325, Subdomain 2 Ser334-Arg530) and synthase domain (Pro539-Gly860); also called RtMprF(DDM); RtMprF(GDN); source: E. coli C41(DE3), pET21b; purified (Ni-NTA in β-DDM or GDN) and reconstituted in POPG/MSP1E3D1 nanodiscs (Ni-NTA, SEC); also unpurified, in the E. coli …
Turning to B1, the “stoichiometry N” value is 2.
